Measurements as given in paper PMC7347935, “STK11 (LKB1) missense somatic mutant isoforms promote tumor growth, motility and inflammation” (Communications Biology, 2020).

Target: T1, LKB1^Y49D (human, UniProt Q15831 1-433, Y49D)
T1 sequence (looked up): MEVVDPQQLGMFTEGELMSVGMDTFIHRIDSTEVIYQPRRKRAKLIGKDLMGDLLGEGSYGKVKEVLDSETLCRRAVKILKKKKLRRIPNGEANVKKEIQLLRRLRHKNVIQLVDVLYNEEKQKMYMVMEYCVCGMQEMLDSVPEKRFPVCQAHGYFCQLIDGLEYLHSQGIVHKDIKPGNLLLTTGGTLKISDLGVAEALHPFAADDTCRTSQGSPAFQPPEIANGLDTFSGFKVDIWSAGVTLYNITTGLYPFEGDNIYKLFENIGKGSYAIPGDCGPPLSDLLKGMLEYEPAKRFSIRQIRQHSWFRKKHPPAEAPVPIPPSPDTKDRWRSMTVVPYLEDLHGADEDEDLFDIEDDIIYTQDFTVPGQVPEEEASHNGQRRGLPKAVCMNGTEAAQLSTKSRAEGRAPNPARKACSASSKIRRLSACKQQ
Assay: cell-based or functional assay

B1: STRADα (natural protein, human (endogenous in A549 and G361), UniProt Q7RTN6 1-431, looked up)
chain: MSFLVSKPERIRRWVSEKFIVEGLRDLELFGEQPPGDTRRKTNDASSESIASFSKQEVMSSFLPEGGCYELLTVIGKGFEDLMTVNLARYKPTGEYVTVRRINLEACSNEMVTFLQGELHVSKLFNHPNIVPYRATFIADNELWVVTSFMAYGSAKDLICTHFMDGMNELAIAYILQGVLKALDYIHHMGYVHRSVKASHILISVDGKVYLSGLRSNLSMISHGQRQRVVHDFPKYSVKVLPWLSPEVLQQNLQGYDAKSDIYSVGITACELANGHVPFKDMPATQMLLEKLNGTVPCLLDTSTIPAEELTMSPSRSVANSGLSDSLTTSTPRPSNGDSPSHPYHRTFSPHFHHFVEQCLQRNPDARPSASTLLNHSFFKQIKRRASEALPELLRPVTPITNFEGSQSQDHSGIFGLVTNLEELEVDDWEF
specific in vitro kinase activity towards NUAKtide peptide in the presence of STRADα, relative to LKB1^WT: ~30 % of LKB1^WT activity
